Assay results: the nanobody polyreactivity screen of Harvey et al. (2022)

Assay: yeast display, Sf9 membrane polyspecificity reagent, FACS + sequencing; frameworks hold sequencing errors
Summary of the method: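 Nanobodies came from a synthetic yeast display library in Saccharomyces cerevisiae BJ5465, induced with galactose for 36–48 hours and stained for 1 hour at 4 °C with 10% biotinylated, detergent-solubilized Sf9 membrane reagent. Cells were enriched on streptavidin microbeads and then FACS-sorted, with low and high (top ~1%) gates set on anti-HA fluorescence for expression and streptavidin fluorescence for reagent binding. Each polyreactivity label reflects the gate a clone came from. Genes were amplified by colony PCR, sequenced by MiSeq 2 × 250 and filtered by CDR length.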

| Sequence | polyreactivity (PSR sort gate) |
| --- | --- |
| QVQLVESGGGLVQAGGSLRLSCAASGSTFFPNAMGWYRQAPGKEREFVAAISWSGGRTYYADSVKGRFTISRDNAKNTVYLQMNSLKPEDTAVYYCAARLYTVRYGYWGQGTQVTVSS | high polyreactivity |
| QVQLVESGGGLVQAGGSLRLSCAASGSTFFPNGMGWYRQAPGKERELVAAITQDGGSTYYADSVKGRFTISRDNAKNTVYLQMNSLKPEDTAVYYCAASAGPYYEYGYWGQGTQVTVSS | low polyreactivity |
| QVQLVESGGGLVQAGGSLRLSCAASGSTFFPYAMGWYRQAPGKERELVATINYSGGGTYYADSVKGRFTISRDNAKNTGYLQMNSLKPEDTAVYYCAKTLARFDRGYYWGQGTQVTVSS | low polyreactivity |
| QVQLVESGGGLVQAGGSLRLSCAASGSTFFRNAMGWYRQAPGKERELVAAISGSGNTYYADSVKGRFTISRDNAKNTVYLQMNSLKPEDTAVYYCADDVVYWYFHYDYWGQGTQVTVSS | low polyreactivity |
| QVQLVESGGGLVQAGGSLRLSCAASGSTFFRYAMGLYRQAPGKEREFVAAITWSGTGTYYADSVKGRFTISRDNAKNTVYLQMNSLKPEDTAVYYCAARRSSNVRRDYWGQGTQVTVSS | high polyreactivity |
| QVQLVESGGGLVQAGGSLRLSCAASGSTFFRYAMGWYRQAPGKEREFVAAITSSGGNTYYADSVKGRFTISRDNAKNTVYLQMNSLKPEDTAVYYCADVWYSPYVKYNYWGQGTQVTVSS | low polyreactivity |
| QVQLVESGGGLVQAGGSLRLSCAASGSTFFRYAMGWYRQAPGKERELVAAISWSGGTTYYADSVKGRFSISRDNAKNTVYLQMNSLKPEDTAVYFCNAVRQGHILDYWGQGTQVTVSS | low polyreactivity |
| QVQLVESGGGLVQAGGSLRLSCAASGSTFFRYAMVWYRQAPGKERELVAAITWTGGDTYYEDSVKVRFTISRDNAMNTVYLKMNSLKPEDTAVYYCNKRLDSYYLPGFDYWGQGTQVTVSS | low polyreactivity |
| QVQLVESGGGLVQAGGSLRLSCAASGSTFFYKAMGWYRPAPGKERELVAVISSRGTSTYYADSVKGRFTISRDNAKNTVYLQMNSLKPEDTAVYYCAAVQIRHTATLLHKPGYYWGQGTQVTVSS | high polyreactivity |
| QVQLVESGGGLVQAGGSLRLSCAASGSTFFYNAMGWSRQAPGKERELVASINDRAGRTYYADSVKGRFSISRDNAKNTVYLQMNSLKPEDTAVYYCAAEPWYKFDDDFWGQGTQVTVSS | low polyreactivity |
| QVQLVESGGGLVQAGGSLRLSCAASGSTFFYNAMGWYRKAPGKERELVAAITGSGTRTYYADSVKGRFTISRDNAKNTVYLQMNSLKPEDTAVYYCAKYPHPLKYRGYPSEFDYWGQGTQVTVSS | low polyreactivity |
| QVQLVESGGGLVQAGGSLRLSCAASGSTFFYNAMGWYRQAPGKERELVAAISWSGGRTYYADSVKGRFTISRDNAKNTVYLQMNSLKPEDTAVYYCNTVVSKYYKVGFGSWGHGTQVTVSS | high polyreactivity |
| QVQLVESGGGLVQAGGSLRLSCAASGSTFFYNAMGWYRQAPGKERELVAGITSGGSTYYADSVKGRFTISRDNAKNTVYLQMNSLKPEDTAVYYCAVDVPPWDYDYWGQGTQVTVSS | low polyreactivity |
| QVQLVESGGGLVQAGGSLRLSCAASGSTFFYYAMGWYRQAPGKERELVAGITSGASTTYADSVKGRFTISRDNAKNNVYLQMNSLKPEDTAVYYCAADHVESSWSDYDYWGQGTQVTVSS | low polyreactivity |
| QVQLVESGGGLVQAGGSLRLSCAASGSTFGANAKGWYRQAPGKARALVAAITWSGGSTYYADSVKGRFTISRDNAKNTVFLQMNSLKPEDTAVSYCNAVARWYVLQVYEYDYWGQGTQVTVSS | low polyreactivity |
| QVQLVESGGGLVQAGGSLRLSCAASGSTFGANAMGWYRQAPGKEREFVAAISRSGVRTYYADSVKGRFTISRDNAKNTVYLQMNSLKPEDTAVYYCAARFWYDYRHYDYWGQGTQVTVSS | low polyreactivity |
| QVQLVESGGGLVQAGGSLRLSCAASGSTFGANAMGWYRQARGKEREFVAAISRSGVRTYYADSVKGRFTISRDNAKNTVYLQMNSLKPEDTAVYYCAADGYWWTYTRYDYCGQGTQVTVSS | low polyreactivity |
| QVQLVESGGGLVQAGGSLRLSCAASGSTFGDNAMGWYRQAPGKERELVATITWSDDSTYYADSVKGRFTISRDNAKNTVYLQMNSLKPEDTAFYYCAADVDSYLLIGAVEYDYWGHGTQVTVSS | low polyreactivity |
| QVQLVESGGGLVQAGGSLRLSCAASGSTFGDNTMGWYRQAPGKERELVAAISRRGGSTYYADSVKGRFTISRDNAKNTVYLQMNSLKPEDTAVYYCADEWQQLGGPVYYWGQGTQVTVSS | high polyreactivity |
| QVQLVESGGGLVQAGGSLRLSCAASGSTFGDYAMGWYRQAPGKERELVAAITIGGITTYADSVKGRFTISRDNAKNTVYLQMNSLKPEDTAVYYCNADDYQYKTWYHLDYWGQGTQVTVSS | low polyreactivity |
| QVQLVESGGGLVQAGGSLRLSCAASGSTFGFYAMGWYRQAPGKERELVAAISGRGGSTYYADSVKGRFTISRDNAKNTVYLQMNSLKPEDTAVYYCNADWQDDLAGYDVDYWGQGTQVTVSS | low polyreactivity |
